The chains are these.
B1: 4B12-8 (Fab, V domains shown)
VH: QVQLVQSGAEVKKPGASVKVSCKASGYTFTNYDIIWVRQAPGQGLEWMGYINPYNGRRKYNEKFKGRVTMTRDTSTSTVYMELSSLRSEDTAVYYCARLLKYRRFRYYAIDYWGQGTTVTVSS
VL: DIQMTQSPSSLSASVGDRVTITCRASEPVYSNVAWYQQKPGKAPKLLIYAASNLQSGVPSRFSGSGSGTDYTFTISSLQPEDIATYYCQHFWGSPFTFGQGTKLEIK
notes: Fab
B2: 4B12-13 (Fab, V domains shown)
VH: QVQLVQSGAEVKKPGASVKVSCKASGYTFTNYDIIWVRQAPGQGLEWMGYINPYNGRREYNAKFKGRVTMTRDTSTSTVYMELSSLRSEDTAVYYCARLLKYRRFRYYAIDYWGQGTTVTVSS
VL: DIQMTQSPSSLSASVGDRVTITCRASEPVYSNVAWYQQKPGKAPKLLIYAASNLQSGVPSRFSGSGSGTDYTFTISSLQPEDIATYYCQHFWGSPFTFGQGTKLEIK
notes: Fab
B3: 4B12-16 (Fab, V domains shown)
VH: QVQLVQSGAEVKKPGASVKVSCKASGYTFTNYDIIWVRQAPGQGLEWMGYINAYNGRREYNEKFKGRVTMTRDTSTSTVYMELSSLRSEDTAVYYCARLLKYRRFRYYAIDYWGQGTTVTVSS
VL: DIQMTQSPSSLSASVGDRVTITCRASEPVYSNVAWYQQKPGKAPKLLIYAASNLQSGVPSRFSGSGSGTDYTFTISSLQPEDIATYYCQHFWGSPFTFGQGTKLEIK
notes: Fab
B4: 4B12-18 (Fab, V domains shown)
VH: QVQLVQSGAEVKKPGASVKVSCKASGYTFTNYDIIWVRQAPGQGLEWMGYINPYAGRREYNEKFKGRVTMTRDTSTSTVYMELSSLRSEDTAVYYCARLLKYRRFRYYAIDYWGQGTTVTVSS
VL: DIQMTQSPSSLSASVGDRVTITCRASEPVYSNVAWYQQKPGKAPKLLIYAASNLQSGVPSRFSGSGSGTDYTFTISSLQPEDIATYYCQHFWGSPFTFGQGTKLEIK
notes: Fab
B5: 4B12-17 (Fab, V domains shown)
VH: QVQLVQSGAEVKKPGASVKVSCKASGYTFTNYDIIWVRQAPGQGLEWMGYINPANGRREYNEKFKGRVTMTRDTSTSTVYMELSSLRSEDTAVYYCARLLKYRRFRYYAIDYWGQGTTVTVSS
VL: DIQMTQSPSSLSASVGDRVTITCRASEPVYSNVAWYQQKPGKAPKLLIYAASNLQSGVPSRFSGSGSGTDYTFTISSLQPEDIATYYCQHFWGSPFTFGQGTKLEIK
notes: Fab
B6: 4B12-14 (Fab, V domains shown)
VH: QVQLVQSGAEVKKPGASVKVSCKASGYTFTNYDIIWVRQAPGQGLEWMGYISPYNGRREYNEKFKGRVTMTRDTSTSTVYMELSSLRSEDTAVYYCARLLKYRRFRYYAIDYWGQGTTVTVSS
VL: DIQMTQSPSSLSASVGDRVTITCRASEPVYSNVAWYQQKPGKAPKLLIYAASNLQSGVPSRFSGSGSGTDYTFTISSLQPEDIATYYCQHFWGSPFTFGQGTKLEIK
notes: Fab
B7: 4B12-15 (Fab, V domains shown)
VH: QVQLVQSGAEVKKPGASVKVSCKASGYTFTNYDIIWVRQAPGQGLEWMGYIAPYNGRREYNEKFKGRVTMTRDTSTSTVYMELSSLRSEDTAVYYCARLLKYRRFRYYAIDYWGQGTTVTVSS
VL: DIQMTQSPSSLSASVGDRVTITCRASEPVYSNVAWYQQKPGKAPKLLIYAASNLQSGVPSRFSGSGSGTDYTFTISSLQPEDIATYYCQHFWGSPFTFGQGTKLEIK
notes: Fab
B8: 4B12-19 (Fab, V domains shown)
VH: QVQLVQSGAEVKKPGASVKVSCKASGYTFTNYDIIWVRQAPGQGLEWMGYINPYNGRREANEKFKGRVTMTRDTSTSTVYMELSSLRSEDTAVYYCARLLKYRRFRYYAIDYWGQGTTVTVSS
VL: DIQMTQSPSSLSASVGDRVTITCRASEPVYSNVAWYQQKPGKAPKLLIYAASNLQSGVPSRFSGSGSGTDYTFTISSLQPEDIATYYCQHFWGSPFTFGQGTKLEIK
notes: Fab

TrkB, sequence (Q16620 32-430 limits assumed): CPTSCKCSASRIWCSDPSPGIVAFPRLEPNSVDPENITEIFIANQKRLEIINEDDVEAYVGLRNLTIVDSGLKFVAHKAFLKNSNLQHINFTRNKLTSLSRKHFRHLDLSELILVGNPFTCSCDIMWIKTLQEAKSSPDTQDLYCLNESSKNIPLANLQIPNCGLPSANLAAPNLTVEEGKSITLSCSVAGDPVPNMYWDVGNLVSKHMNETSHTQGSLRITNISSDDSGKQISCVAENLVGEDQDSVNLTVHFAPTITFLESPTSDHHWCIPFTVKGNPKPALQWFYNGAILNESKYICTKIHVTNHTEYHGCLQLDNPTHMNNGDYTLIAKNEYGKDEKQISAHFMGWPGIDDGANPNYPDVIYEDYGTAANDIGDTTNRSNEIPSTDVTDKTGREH

The assay deals with TrkB (Homo sapiens (Human), UniProt Q16620 32-430). The experiment in a line: koff of Fab at 25 C; T1/2=Log2/koff. A digest of the protocol:
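Monovalent Fab fragments were tested at 25° C by surface plasmon resonance on a Biacore instrument, against TrkB extracellular-domain monomer amine-coupled to the chip at low capacity. Fabs were injected low to high as a 3-fold serial dilution from 100 nM for 84 sec, with a 10 minute dissociation after the top sample. The dissociation half-life was calculated from koff, which was fitted to a Langmuir binding model in BIAevaluation. The formula used was T1/2 = Log 2/koff.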
B1 showed a T1/2 of 13.8 min.

Take B2: the T1/2 is 13.7 min.

Molecule B3 showed a T1/2 of 5.6 min.

In turn, B4 came in with a T1/2 of 3.8 min.

B5 yielded a T1/2 of 1 min.

For B6, the T1/2 stood at 3.2 min.

B7 yielded a T1/2 of 2.7 min.

For B8, the T1/2 stood at 13.1 min.
